Target: FAK
Assay: anti-GFP co-IP, anti-myc blot
Conditions: reference: WT-paxillin-GFP; sites S273

Sequence of paxillin (P49024 whole entry, looked up, stated change not applied): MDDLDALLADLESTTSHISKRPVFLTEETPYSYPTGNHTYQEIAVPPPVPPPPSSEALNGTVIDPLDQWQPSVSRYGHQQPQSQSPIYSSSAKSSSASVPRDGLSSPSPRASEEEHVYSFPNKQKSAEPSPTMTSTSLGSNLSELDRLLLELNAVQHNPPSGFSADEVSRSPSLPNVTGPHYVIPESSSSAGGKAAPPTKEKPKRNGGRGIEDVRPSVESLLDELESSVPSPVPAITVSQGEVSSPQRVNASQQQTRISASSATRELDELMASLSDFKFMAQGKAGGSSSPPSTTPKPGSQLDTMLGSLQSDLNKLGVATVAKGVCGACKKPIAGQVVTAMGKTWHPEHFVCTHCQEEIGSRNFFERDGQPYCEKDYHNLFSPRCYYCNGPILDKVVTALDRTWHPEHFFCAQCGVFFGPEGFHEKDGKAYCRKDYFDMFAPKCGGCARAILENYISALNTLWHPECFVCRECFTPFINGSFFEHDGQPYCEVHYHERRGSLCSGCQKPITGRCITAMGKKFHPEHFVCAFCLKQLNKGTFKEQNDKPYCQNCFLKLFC

other: percent increase over reference: 25%
Substance: paxillin (from UniProt P49024) S273A-paxillin-GFP
